The data set concerns the target custom-expressed human TDP-43 (Nanjing GenScript Biotechnology Co., Ltd., C134WHE160-2/P5HF001), Q13148.

Experimental findings from US20260166131 are described below.

Sequence of custom-expressed human TDP-43 (Nanjing GenScript Biotechnology Co., Ltd., C134WHE160-2/P5HF001), Q13148 (Q13148 whole entry): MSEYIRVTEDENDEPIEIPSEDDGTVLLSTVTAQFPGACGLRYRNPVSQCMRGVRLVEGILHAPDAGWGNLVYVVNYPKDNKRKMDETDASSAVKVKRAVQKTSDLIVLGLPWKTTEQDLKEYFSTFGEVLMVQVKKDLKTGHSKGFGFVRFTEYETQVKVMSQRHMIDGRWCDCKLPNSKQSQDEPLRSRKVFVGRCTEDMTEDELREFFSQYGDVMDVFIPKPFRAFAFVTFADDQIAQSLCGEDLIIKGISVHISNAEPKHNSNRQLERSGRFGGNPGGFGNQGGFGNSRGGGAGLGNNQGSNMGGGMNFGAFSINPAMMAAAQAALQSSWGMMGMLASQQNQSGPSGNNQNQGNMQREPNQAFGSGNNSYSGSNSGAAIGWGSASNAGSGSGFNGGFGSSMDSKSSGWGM

B1: human plasminogen purified from human donor plasma (protein)
chain: KVYLSECKTGNGKNYRGTMSKTKNGITCQKWSSTSPHRPRFSPATHPSEGLEENYCRNPDNDPQGPWCYTTDPEKRYDYCDILECEEECMHCSGENYDGKISKTMSGLECQAWDSQSPHAHGYIPSKFPNKNLKKNYCRNPDRELRPWCFTTDPNKRWELCDIPRCTTPPPSSGPTYQCLKGTGENYRGNVAVTVSGHTCQHWSAQTPHTHNRTPENFPCKNLDENYCRNPDGKRAPWCHTTNSQVRWEYCKIPSCDSSPVSTEQLAPTAPPELTPVVQDCYHGDGQSYRGTSSTTTTGKKCQSWSSMTPHRHQKTPENYPNAGLTMNYCRNPDADKGPWCFTTDPSVRWEYCNLKKCSGTEASVVAPPPVVLLPDVETPSEEDCMFGNGKGYRGKRATTVTGTPCQDWAAQEPHRHSIFTPETNPRAGLEKNYCRNPDGDVGGPWCYTTNPRKLYDYCDVPQCAAPSFDCGKPQVEPKKCPGRVVGGCVAHPHSWPWQVSLRTRFGMHFCGGTLISPEWVLTAAHCLEKSPRPSSYKVILGAHQEVNLEPHVQEIEVSRLFLEPTRKDIALLKLSSPAVITDKVIPACLPSPNYVVADRTECFITGWGETQGTFGAGLLKEAQLPVIENKVCNRYEFLNGRVQSTELCAGHLAGGTDSCQGDSGGPLVCFEKDKYILQGVTSWGLGCARPNKPGVYVRVSRFVTWIEGVMRNN
As to B1, the “Western blot and band density of TDP-43 after 3 h at 37 C with plasminogen in normal mouse brain homogenate” value is “the amounts of TDP-43 monomer, HMW and LMW in the plasminogen group are significantly lower than those in the vehicle control group”.
